Measurements as given in the DeepSol protein solubility set.

Assay: soluble on expression in E. coli; label from the status in PepcDB or PDB records
In the case of “GPGSMKTIALLSGGKDSILAMLMAHRYGHEPVVIANMAPVLESDGALRGAAENGTHGHDIDSYMYQTVGFEAVDSIAACLGLPLRRGRVRRGLAKDQSLLYSEQPPEEDEVESLYSLIRTVKEEFPEVQGLTSGAILSNYQRNRVELICDRLGLESLAYLWMRQPDEILDMADALHVQAILVKTASIGLMPRCLIGKTLEEARPTLEKMAELYHSHLAGEGGEYETIVLNCPLFHAEHLTVTALEVVMQDDNDISPSGHGLLTVARVPKSVEQQAKEAEVLARVRAGAVTFPSDTMPLLRSCAVYPLALSATASARGPGETIDLPLPATIRSALFLGSGTAAARDGIAHHTYASPLEAGASAAEALNACLTVLQTWAAERSLTPFYYHFSLPEPSWEVSCRAAYAGKVSHVCPPGLLVTVRDSRSRSAAAVEAEVLAAPTAAIQQHVLHAQSRSCWALGEPGPHSQARRVGLATGTSRLFVSATPGRVPATREVATASDLPAVCQQCITALAAAQHGEETSAALTDIAAQFVVAMSNCERYLTLFGCSFGDVDRAAVVATDDVPVSLLPALWQWTTQNTGALPFERVCQVVVVGALSGTEKIRVSMECVEVRGGGG”, the “soluble on expression in E. coli” value was “not soluble”. In the case of “GPGSMLRFTHRALTATPERFSVLGTTHPKPKRTGFGRNNKMRSKPSDNVAWYDKGPVEWLPRPVRLTYDHLDQLQQWMMRATLDGRTEEFNRIRDLHREWSQHPLMPVLGDVEPKFPLNLFKQNHRAKKRFLVRWHKANTPANWLWMPRGPTVVTPLHRTNPTQYPENWKQMVQRKSGTGTPS”, the “soluble on expression in E. coli” value was “not soluble”. In the case of “GPGSMLRRQCVPLRVVAAGLRLNSSSSGPSKTNDGGIPNATGMDNAPGLYAEKPSSTYCEEKYPNKVEEVGSLKPPTYDVPHGRSDNIKTPEFNTSLGKFDQAPYFTGGPPAMRYHGYKRDPAVEGVDYRDVLPKTPIEDHHPHMEFLSVTGRREGSTFLLANAGVNWELKAAAMSLYRTILKSLPMIKHYYWLLVPLPAMKDKIRLRFLQNQHTKDPDAIRHLLHNGWMEFQESIMFRRPR”, the “soluble on expression in E. coli” value was “not soluble”. With “GPGSMLSTIKTRPQGPYCGDYFSIVEGRVDFPVDLDTFDISLTISGDVEECKNEPYVYDEVSGNVELTNAQDPGDCLGSILRRNQLTLMVTYHPDDDKISLDFGIAVVNLSPCP” the “soluble on expression in E. coli” value was “not soluble”. In the case of “GPGSMLTRSLVCRASLQSRRRWEQRIVSVLSENKEEGVDAVAKRFQRVYKERRYTPVEEAFPPLAAAAAAPGLRSSAAKESVESVQQPANPLVLRVAFLGPQNAGKTSLVNSMALSNVGAVSNRYGSTKDWTKAVATVHETQLLLLDTPGIVPRDTQRVRRKFASGTAKAYDALFVSDLVVLALPVGVGFVEKEHKVVATEVVRRAAGRELPVVIAMTMMDKVQTPWHRELYFAMRTDLESLGLPTAATHEVSVKGGSGLVELKDCLCQYAKPGAWEHYRREATDLNPPQRVAELLRQTFMELLPHEIPHCMRHRVLGWTRKESGTTEVVVEAFFDRPAYMFTFYGKLEAICLRAQQVTERELAPQRFRFVFQAFIAPGGLSNS”, the “soluble on expression in E. coli” value was “not soluble”. With “GPGSMPALKPLLVFGLRGTLVERIHVRHVPEGMPAADFTVGLVKVWLRPHMVEVLNELQEHCRLAIWSSTTARNTHPLVNAVFGSNMTLQAGAGATTAAPARQEAASASAVVAASASNGRSGRFGTKRRPTKAEAADEESASEAAINAPKPQRVHFEFVWTREHTRVDDFRRLNAAVNDDSHATVKDLSQVFAQFPSIAQPQNTVLIDDTPSKAKMQADNYLWLDTCSNLRIKDETSLYRLRDFVMRELVPAEDVRELLPRRIRM” the “soluble on expression in E. coli” value was “soluble”. With “GPGSMPGGGLEVIGTPALPHPSSASDADDAAAGCSFRLSQSGGDPRYVSSRVAGRMQDARHGAESRLVDGTATFLDFLAETSVERPLRVRLRQRARQSFVFFNLETAIDCLNLSWEAYAVQESRGDDFISTGIQVNAAEVPRAALGFVERVAMALLGLCFNPSPHVCHALDDSEEDAAAAISFTSGGDRTPLLDERRASRSRSPVRAPLGAEVASSATRATQADLAAAALFPHCGSSSTRSGSCQPFFRQPAPAASATSPCFGGTSSPPGAAAAGASSFSSSPSNRIGSFPTSASAATANAGADAARLPHMNPEQYGYHRVAVLEARGVQVVVVRMDTSGSCPVHIGKVPRLVIAFRGTDNVANVMEDIRFRQRTWKEMKTPTLSGRASVHSGFLELWMSLKERVIDVVLRELRSQCTPLEGSNAEVSAAGTTGHAGEGASTVAGCSPSQAGHDMFHATVPFSDIWSLRRNGGGRGCADTRQGAFGSEQGGFEGFMRVYVTGHSLGGALASLCAYTLRRMLLLIQYPEPDLVVYTFGQPRIGNFVFKQYYNRAVPCTFRVVNESDAVSGFNFFGGHHVGVQVNIDRHGNYICKPMYIERMFRPTRGRGFALANHAISAYASSLNAMANVYTHGACPLRCRQPYMGEIVSVSSTNSE” the “soluble on expression in E. coli” value was “not soluble”. In the case of “GPGSMQQPGSHQIQPIDSLTPFLGGKWWIRARVTDKTDIRTWNKPTSQGKLFSFTLIDESAAIRATVFNDAVDTFEPLIVNGQVYYFSGGQVKNANRRFSNVNNDYELTFDRSSEIMLARQDTSTAALPMQRYNFVPIELLKQREVGSLVDVLGVVLKVDEVSSITQKSTGRELMKRNVKMGDMTAAVEVTFWNDEAKAWCYPVGTVVALRQLKVGSFDGVTLSSTYQTKIDINPTDLPDVKKLATWYVATGGANVTSLSSQGLGAASGAGGESDRGRKYLDEIQSEGIGRGLKPEYVDVRCVPIYFKQDAQWYDACPTCNKKVTEEGAQGDRFRCEKCDKTVTPTQRYLVSIQVTDNVSQAWLTLFNEAGIEFFGMEAAELKRRAQEDPLYIAKLAQGRMNRPVVMRLRVKEEMSSNSMTGEESDRLRMSVVRISEFMPIAGTSEETRRRLAQNLRTECDEILRLIEAYV”, the “soluble on expression in E. coli” value was “not soluble”. In the case of “GPGSMQTDFGDATTFSLRPDHKRKFRPNDIRPVVRSLLESRLENEVYKADEMQSISKEIADGVRDRIRSMELERYKIMVHCMIGEQRGQGLRAGCKMFWDSDTDDYFEEVYVTQHLFAVVTVFGLYQY”, the “soluble on expression in E. coli” value was “not soluble”. With “GPGSMRSTAELSSPLSISLPCSLSAEPPHHTLPATTANIIALRRAADPSTFTHTHTNTARPPLPAPYFRQRDSSWCSHASPHAHRHTHTYPSLSLPAPRFFFAHRYAAAALPRRLPAIMTHEFHSLFLPLAAEEQAVFADFFPTLVASSTSIQDGVAGEHSLQPTVSATLDTYSSACATSPHSPGECGSLPEVGRGAATDAQARCDAPLRSLVFAIGSARADAVIVVLRRGDVVLYGLDRLHTPPYEKCRIRPLPTTQQLMAARENARRYSNADGAASAGSWTDASCSGGVAGSRSVVNGGVEATCAALLPLHIGYCCRIPLSASFSSATPPAGGPRRGGGGGSRDERDEDVVYLRGIVGSSDGRVSLFSDTSYTLSFAAHDIPVAQVDAVLLPPCTLDRRVSTNASPTTSTRGFSSTGAGANTRTAPSGELTSPTSPQPQERLARATQRLGLVTSGNDGVVLLWRRLGDSMSPIVVVRPSTFSSRAAYAVYHPSALSALLSSWAPPSQREAAVDAELSCPPSCLLHAATSTSHTLRVRQLASISPKPTHKSLSSAARRESVEEAAPTSMSAALPGSWSATVTAIAAHDSVTLVAMGASLLSLVKLNPRSAARVWKAAESITQLVLIDSVALAVCARSGTVHVLTIHPGTGRVVRQRVYYSYKNRAIHHTSLHVASLLMTIVDVCGSTELVQLPTDVMLPCDVRLRRGEYTSGDAANVNLLASMAALRAKVCIEAIKGGSGGGVSGSVAANEAEVTGGSTSMYEANAALDQLNERLLLARYAVPEECDNFMGANVHVF” the “soluble on expression in E. coli” value was “not soluble”. In the case of “GPGSMSDVKSKEAGANPAASKSGSGEDVAETKLAVPRSLDTGSKKHPLNSSWTLWYDSLSTYDSERWELSLVEVITVRTVEEFFTMLHYCKPPHVLRVSAQYHFFREGVKPMWEDPSNKAGGKLWISLDDKPVGDVGGRKWENANTGGAAGGEKDNASAATNNSNSNQNAKAKKEEQETEKKPELDTMWENLLMAMVGEYLDPEPDGDHIMGLVLSRRKYHNRIALWLRDASASEAVARIEKKLVKEAGLPPAMKFIFTPHSTGK”, the “soluble on expression in E. coli” value was “soluble”. For “GPGSMSGTLLKEELLQLDNKRRSIMRDIEEAMTFLNSTPVGLRGSLVDSEGFPRDDCDLYAVRRARHTVNCGHNDLKSIEATIHEKLSQLHEECRGEAEEQMQRDKMKKKSEDDQRRRDEQKQVMSSKEPFVRVVDVATGSPAEEGGLICGHLIVQYGDVDAEKVLEGGFGEMARVTSSYEGQMLRVWVRSPSDDDCGGARELFIVPQRWRGEGLLGCTFEPMKLN”, the “soluble on expression in E. coli” value was “soluble”. For “GPGSMSINFSAPYLVTEMEEKVVTSLPSGDTASGSGESTASPPIVISAAVPYTEEEKKLLTEQLRRHQRQQSQGDDDSSWNETTLPFISSMVEKVLQLAAQNRESDSTKDSGSGDENKPQEKANATDDVAGADAVSKVDTFVEDNDYVLEQLRLQPWPFFTLPRLCEILADPYKYNSIGDKLRGEKLQSAIRRCVLVSAPLNCDVRNNSS”, the “soluble on expression in E. coli” value was “not soluble”. With “GPGSMSLPCPSSSSPLLGSITSGVRSPSRGPVQQQQLLHQRHASMRLRLHKDGSICACPEKSGGGVSQACAPPLPATSAFARGKEEPSAKRHHAEPSSCPGPGGDSSSVDRSAAATVVTIAAPLLSIPNPSSRAAPSPFRFLCTSVGGCPVVGAKDARVHLPDSSARCDVSGSVAPRDLSTTSAHSKAHSTAAVGRASPSSGVVSPPLSATYPSLVSASHGARVVCSHPQSASASTVPGATIDTSAPSPVPSPPHRIHQHELRPADFRREEVLGEGSYSIVTLATHRASGLSFALKEIDRSRLRWRPLEAQLRWEINLQRTLRHPHIVRLYSYFITPDCISLVLEYCSGGTLLSRLRAAPQYRLSERQASRYTRHVAKALVHLHGLGVAHRDLKLENVLIDADGIAKLADFGWSRSVVHPLPSSKSAAAAQTAGDRNDAPCSSAEHNTSNEDPTEGVAEGRRTVCGTLDYLSPEMVSGQAHSAKTDVWSLGVMLAEMLTGTPPFYTESTQETLYAIQRLPPNLTGLHPKGHGPGLTGSGASTSASVCLILDEPVALSAGALSLIHAMLQKDPSARPTMPEVLGHPWLQKKKLARKS” the “soluble on expression in E. coli” value was “not soluble”. In the case of “GPGSMSNNMLALPKVLLMGLRKSGKSSIQKVVFEGMQPHDSATLATTVQPEKSTVHSNDFVNFEVWDFPGQNDPFDSSNASRYDVNQLLENCGAIVYVLDCRELIDDARARLLDTISAAYRHNPELCVEVFIHKVDALSEDHQADLLASLQRRVEEEAKPLLENVQPLRLNFNLTSIYDHSVFQAFSLVVQKLIKSKTPYITELLQMLNSNSNIDLSYLFLSHSKIYVAVDERNRLKSRTYDLCSDAIEVVVKMSGIYMRQRDGVAGGVKDAFTDSVHSLAASATSRTIISSSLGSADGCASDVSELYRGANAVIQLSNEDCIYVRELPSSLTLVLMMKQTHLENRALIDRNVDIFYKAAFDIFSTSAS”, the “soluble on expression in E. coli” value was “not soluble”. With “GPGSMSTSKEAADQSRKFGFKESREQYQQRKRQEKQLKWTERLSKEDLGKLRIELDSLKRARFLAPQQNERKCLVHRMIRDLEAAENKEPKEETPVVATMPSALDSDSDDDIFSGKGTLTNDEHKRLFIPRSVRKKPEEKKCEKTAQQLAGEAERELLAAVHDDDDLDSFLDSLR” the “soluble on expression in E. coli” value was “soluble”. In the case of “GPGSMTDCWYIPEAVADRRDENRLSPNVPASYEVLGEAGIFYRHFDSEEVNDNIEGFIQPLLKKLNYQSYDVVNLSPANLGAEKFETLAEQHFMEHIHEDDEVRLILEGQGYFDVRDINDKWIRLLLKPGDCIVVPAGMYHRFTTDQSKCIKTLRIFKEAPQWIALNRGPEAEEKPARKEYLARLHAPAETAVGAVNGRTIFSLRYPLKLDAELTVITKRLLEQHSKQPLALAIYLTGSTDPTTGESWCPDCVLAKLHVARRFAELQGTYGKEHAIFLQLPVERASYLGNPNFFYRTHPILQLASVPTLLVLSPAKDAKEGGDVQWYDLLDVKVRTCDVDRTDVLNLE”, the “soluble on expression in E. coli” value was “soluble”.
